Experimental data reported in PMC8760323, “Single-chain tandem macrocyclic peptides as a scaffold for growth factor and cytokine mimetics” (Communications Biology, 2022).
Positions of bridges follow the written chain, without caps; N, C: chain ends. No end group written: not given here.

T1: human EPOR ectodomain-Fc (Homo sapiens, UniProt P19235)
T1 construct: human EPOR ectodomain-Fc; purchased R&D Systems
T1 sequence (P19235 25-250 limits assumed): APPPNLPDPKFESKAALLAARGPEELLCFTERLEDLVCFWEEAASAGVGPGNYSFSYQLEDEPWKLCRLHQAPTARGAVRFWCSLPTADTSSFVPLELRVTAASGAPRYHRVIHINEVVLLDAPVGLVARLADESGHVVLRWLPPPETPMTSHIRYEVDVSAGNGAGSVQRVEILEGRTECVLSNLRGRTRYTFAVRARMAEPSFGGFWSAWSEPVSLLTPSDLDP

T2: EPOR (Homo sapiens, UniProt P19235)
T2 sequence (P19235 25-508): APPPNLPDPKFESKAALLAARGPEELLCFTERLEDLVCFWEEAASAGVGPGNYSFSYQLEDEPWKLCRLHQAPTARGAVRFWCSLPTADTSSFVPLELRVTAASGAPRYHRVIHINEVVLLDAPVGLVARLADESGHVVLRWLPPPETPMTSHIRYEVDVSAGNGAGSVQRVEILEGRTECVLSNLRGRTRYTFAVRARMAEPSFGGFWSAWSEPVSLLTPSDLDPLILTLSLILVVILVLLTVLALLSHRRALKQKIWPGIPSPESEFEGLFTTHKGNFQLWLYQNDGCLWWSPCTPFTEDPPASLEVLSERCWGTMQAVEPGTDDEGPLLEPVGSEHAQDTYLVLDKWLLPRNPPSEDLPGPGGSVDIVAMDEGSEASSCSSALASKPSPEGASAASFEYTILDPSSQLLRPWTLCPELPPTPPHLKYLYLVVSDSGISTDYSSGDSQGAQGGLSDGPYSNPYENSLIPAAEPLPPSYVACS

T3: Recombinant human EPOR ectodomain-Fc (human, UniProt P19235 25-250)
T3 construct: erythropoietin receptor (EPOR), human, ectodomain; Captured on the chip with a human antibody capture kit, by its Fc; also called EPOR-Fc; rhEPOR ectodomain-Fc; source: bought: R&D Systems
T3 sequence (looked up): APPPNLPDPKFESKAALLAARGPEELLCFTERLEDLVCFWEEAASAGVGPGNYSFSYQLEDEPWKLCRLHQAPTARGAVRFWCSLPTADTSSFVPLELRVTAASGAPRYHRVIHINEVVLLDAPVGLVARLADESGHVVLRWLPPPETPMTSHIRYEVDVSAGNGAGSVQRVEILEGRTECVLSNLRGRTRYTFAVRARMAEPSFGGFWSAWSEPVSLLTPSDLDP


What was measured:
human EPOR ectodomain-Fc = target: T1, human EPOR ectodomain-Fc; experiment: SPR analysis, human EPOR ectodomain; type: binding; details: for binding against EPOR: exact dissociation constants not determinable, too slow dissociation
Method: (§1) Binding constants of the STaMPtides and monomeric macrocyclic peptides to their corresponding receptor ectodomains were determined by SPR analysis using Biacore T200 (Cytiva). HBS-EP + buffer (Cytiva) containing 0.1% dimethyl sulfoxide (DMSO; Sigma-Aldrich, St. Louis, MO, USA) was used as the running buffer. As ligands, recombinant human Met ectodomain-Fc and human EPOR ectodomain-Fc were immobilized to around 1000 response units on CM5 sensor chips using a human antibody capture kit (Cytiva). STaMPtides and monomeric macrocyclic peptides were injected in five concentrations at a flow rate of 30 μL/min using a single-cycle kinetics method. Binding constants were quantified by analysis of the 1:1 binding model.

EPOR = target: T2, EPOR; experiment: EPOR-JAK2 functional assay (PathHunter); type: cell-based; details: for EPOR activation by serially diluted supernatants: decellularized supernatant; for EC50: purified, 3 h at room temperature, read-out: half-maximal effective concentration (EC50)
Method: Agonistic activity against EPOR was assessed using the PathHunter® eXpress EpoR-JAK2 Functional Assay Kit (DiscoverX) according to the manufacturer’s instructions. Briefly, cells were seeded on a 96-well cell culture plate and incubated overnight in 5% CO2 at 37 °C. […] The cells were lysed with a substrate reagent, and chemiluminescence was detected using a Nivo plate reader (PerkinElmer).

[1] = target: T4, recombinant human Met ectodomain-Fc (Homo sapiens, UniProt P08581); experiment: SPR analysis, human Met ectodomain; type: binding
T4 construct: recombinant human Met ectodomain-Fc; purchased R&D Systems
T4 sequence (P08581 25-932 limits assumed): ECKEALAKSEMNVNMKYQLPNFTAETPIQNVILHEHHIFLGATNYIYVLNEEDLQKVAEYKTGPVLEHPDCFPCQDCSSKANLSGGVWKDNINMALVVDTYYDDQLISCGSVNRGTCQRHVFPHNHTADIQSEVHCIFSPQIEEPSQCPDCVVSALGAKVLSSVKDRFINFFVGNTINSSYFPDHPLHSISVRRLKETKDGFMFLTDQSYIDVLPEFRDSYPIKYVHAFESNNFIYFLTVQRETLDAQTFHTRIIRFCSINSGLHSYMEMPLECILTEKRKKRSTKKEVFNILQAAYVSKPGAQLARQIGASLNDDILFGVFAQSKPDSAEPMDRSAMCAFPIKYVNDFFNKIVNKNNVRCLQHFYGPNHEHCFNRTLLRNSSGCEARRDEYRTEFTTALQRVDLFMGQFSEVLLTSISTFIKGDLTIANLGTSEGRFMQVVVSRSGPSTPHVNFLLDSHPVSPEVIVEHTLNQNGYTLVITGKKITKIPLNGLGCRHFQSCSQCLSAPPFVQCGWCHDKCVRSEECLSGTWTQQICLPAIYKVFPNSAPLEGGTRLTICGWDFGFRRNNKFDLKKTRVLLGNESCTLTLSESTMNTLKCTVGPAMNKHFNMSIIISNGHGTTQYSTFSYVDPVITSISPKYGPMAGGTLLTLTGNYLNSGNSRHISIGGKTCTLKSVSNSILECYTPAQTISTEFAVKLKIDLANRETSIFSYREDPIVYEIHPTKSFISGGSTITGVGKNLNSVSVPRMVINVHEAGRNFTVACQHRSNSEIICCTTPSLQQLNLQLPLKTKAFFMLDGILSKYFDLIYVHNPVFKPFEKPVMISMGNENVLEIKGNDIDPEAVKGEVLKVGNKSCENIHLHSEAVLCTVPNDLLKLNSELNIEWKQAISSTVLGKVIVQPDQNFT
Method: as §1

Met = experiment: Cell-based phospho-Met ELISA (HuCCT1 cells); parameters: species or system human; details: phospho-Met ELISA and Erk signaling reporter assay
Method: The phosphorylation level of Met was evaluated according to a previously reported method[6],[32], with slight modifications. In brief, HuCCT-1 cells at a density of 10,000 cells/well were seeded on 96-well cell culture plates and incubated overnight in 5% CO2 at 37 °C. The cells were stimulated by rhHGF, purified HGF mimetic STaMPtides, and monomeric aMD4dY for 10 min in a 5% CO2 incubator at 37 °C. Next, cells were fixed using 4% paraformaldehyde in phosphate-buffered saline (PBS) for 20 min. Cells were washed three times with PBS and blocked with 1% BSA and 0.02% Triton X-100 in PBS for 30 min at room temperature. Cells were incubated with 1:1000 diluted phospho-Met (Tyr1234/1235) (D26) XP Rabbit mAb (Cell Signaling Technology) supplemented with 1% BSA in PBS at 4 °C overnight. After washing three times with PBS, the cells were incubated with 1:1000 diluted […] HRP-linked IgG antibody (Cell Signaling Technology) supplemented with 1% BSA in PBS at room temperature for 3 h. Cells were washed four times with PBS and incubated with 100 μL TMB substrate for 30 min. The reaction was stopped with an equal volume of 0.2 N sulfuric acid, and absorbance was quantified at 450 nm by the Molecular Imager ChemiDoc XRS System (Bio-Rad).

[2] = target: T3, Recombinant human EPOR ectodomain-Fc; experiment: SPR; Biacore T200; receptor ectodomain-Fc immobilised to around 1000 RU on CM5 chip by human antibody capture kit; peptides injected in five concentrations at 30 uL/min, single-cycle kinetics; HBS-EP+ buffer with 0.1% DMSO; 1:1 binding model; three runs (N 1-3) and their average
[3] = target: T3, Recombinant human EPOR ectodomain-Fc; experiment: SPR; Biacore T200; receptor ectodomain-Fc immobilised to around 1000 RU on CM5 chips with a human antibody capture kit; peptides injected in five concentrations at 30 uL/min, single-cycle kinetics; HBS-EP+ buffer with 0.1% DMSO; 1:1 binding model; mean and SD of triplicate experiments; details: both partners purified
hPBMCs = experiment: Colony-forming assay; type: cell-based, human; details: at doses of 33 ng/mL or higher, 13 days
Method: Next, 1.1 mL of the mixture was seeded in a 6-well cell culture plate and cultured for 13 days in 5% CO2 at 37 °C. At day 13, colony numbers were counted, and images were taken by inverted microscopy and BZ-X fluorescence microscopy.

[4] = target: T5, Recombinant human Met ectodomain-Fc (human, UniProt P08581 25-932); experiment: SPR; Biacore T200; receptor ectodomain-Fc immobilised to around 1000 RU on CM5 chips with a human antibody capture kit; peptides injected in five concentrations at 30 uL/min, single-cycle kinetics; HBS-EP+ buffer with 0.1% DMSO; 1:1 binding model; mean and SD of triplicate experiments; details: both partners purified
T5 construct: Met, receptor of hepatocyte growth factor, human, ectodomain; Captured on the chip with a human antibody capture kit, by its Fc; also called Met-Fc; source: bought: R&D Systems
T5 sequence (P08581 25-932): as the sequence (P08581 25-932 limits assumed) above

Molecule | kd (human EPOR ectodomain-Fc; Table S1, Average of N 1-3) [M⁻¹ s⁻¹] | KD (human EPOR ectodomain-Fc; Table S1, N 1) [nM] | kd (human EPOR ectodomain-Fc; Table S1, N 1) [M⁻¹ s⁻¹] | KD (human EPOR ectodomain-Fc; Table S1, N 2) [nM] | kd (human EPOR ectodomain-Fc; Table S1, N 2) [M⁻¹ s⁻¹] | KD (human EPOR ectodomain-Fc; Table S1, N 3) [nM] | kd (human EPOR ectodomain-Fc; Table S1, N 3) [M⁻¹ s⁻¹] | binding against EPOR (human EPOR ectodomain-Fc) | Kd [2] [nM] | Kd [3] [nM] | further results
CSCC[C@@H]1NC(=O)[C@H](Cc2c[nH]cn2)NC(=O)[C@@H](NC(=O)[C@H](C)NC(=O)[C@H](Cc2ccc(O)cc2)NC(=O)[C@H](CC(C)C)NC(=O)CNC(=O)CN)CSSC[C@@H](C(=O)N[C@@H](CCC(N)=O)C(=O)N2CCC[C@H]2C(=O)N[C@@H](CC(C)C)C(=O)N[C@@H](CCCNC(=N)N)C(=O)NCC(=O)O)NC(=O)[C@H](C(C)C)NC(=O)[C@H](Cc2c[nH]c3ccccc23)NC(=O)[C@H]([C@@H](C)O)NC(=O)[C@H](CCSC)NC(=O)[C@@H]2CCCN2C(=O)CNC1=O [EMP35, reference compound] | 1e-05 | 0.089 | 1e-05 | 0.15 | 1e-05 | 1.3 | 1e-05 | strong binding potency |  |  | agonist potency weaker than STaMPtides (EPOR): ~ 1000 times
AETGGLYACHMGPMTWVCQPLRGAAPAAPAPGGLYACHMGPMTWVCQPLRG (disulfide 9-18, 37-46) [EMP-PA8] | 1e-05 | 0.034 | 1e-05 | 0.026 | 1e-05 | 0.03 | 1e-05 | strong binding potency |  |  | association rate higher than that of EMP35 (human EPOR ectodomain-Fc): 5–10 times; Kd (human EPOR ectodomain-Fc; Table S1, Average of N 1-3): 0.03 nM; EPOR activation by serially diluted supernatants (EPOR): activated EPOR, even at high dilutions; EC50 (EPOR): 0.022 nM
aMD4dY: modified macrocyclic Met-binding peptide: aMD4 without N-terminal D-Tyr, disulfide instead of thioether linkage (CRQFNRRTHEVWNLDC-OH; disulfide 1-16; N-terminus assumed; SMILES CC(C)C[C@@H]1NC(=O)[C@H](CC(N)=O)NC(=O)[C@H](Cc2c[nH]c3ccccc23)NC(=O)[C@H](C(C)C)NC(=O)[C@H](CCC(=O)O)NC(=O)[C@H](Cc2c[nH]cn2)NC(=O)[C@H]([C@@H](C)O)NC(=O)[C@H](CCCNC(=N)N)NC(=O)[C@H](CCCNC(=N)N)NC(=O)[C@H](CC(N)=O)NC(=O)[C@H](Cc2ccccc2)NC(=O)[C@H](CCC(N)=O)NC(=O)[C@H](CCCNC(=N)N)NC(=O)[C@@H](N)CSSC[C@@H](C(=O)O)NC(=O)[C@H](CC(=O)O)NC1=O) |  |  |  |  |  |  |  |  |  |  | binding to human Met [1]: retained its binding capacity to human Met; kd ([1]; Table S1, Average of N 1-3): 0.045 M⁻¹ s⁻¹; KD ([1]; Table S1, N 1): 39 nM; kd ([1]; Table S1, N 1): 0.04 M⁻¹ s⁻¹; KD ([1]; Table S1, N 2): 53 nM; kd ([1]; Table S1, N 2): 0.05 M⁻¹ s⁻¹; KD ([1]; Table S1, N 3): 44 nM; kd ([1]; Table S1, N 3): 0.044 M⁻¹ s⁻¹; Met phosphorylation and Erk-SRE signaling activation (Met): did not activate Met
GGLYACHMGPMTWVCQPLRG (disulfide 6-15, also called EMP35 (Monomer); monomeric EMP35; source: synthetic peptide (GenScript Japan)) [EMP35] |  |  |  |  |  |  |  |  | < 0.0887 | < 0.5 | 
CRQFNRRTHEVWNLDC-OH (disulfide 1-16; N-terminus assumed; SMILES CC(C)C[C@@H]1NC(=O)[C@H](CC(N)=O)NC(=O)[C@H](Cc2c[nH]c3ccccc23)NC(=O)[C@H](C(C)C)NC(=O)[C@H](CCC(=O)O)NC(=O)[C@H](Cc2c[nH]cn2)NC(=O)[C@H]([C@@H](C)O)NC(=O)[C@H](CCCNC(=N)N)NC(=O)[C@H](CCCNC(=N)N)NC(=O)[C@H](CC(N)=O)NC(=O)[C@H](Cc2ccccc2)NC(=O)[C@H](CCC(N)=O)NC(=O)[C@H](CCCNC(=N)N)NC(=O)[C@@H](N)CSSC[C@@H](C(=O)O)NC(=O)[C@H](CC(=O)O)NC1=O, also called aMD4dY (Monomer); monomeric aMD4dY; source: synthetic peptide (GenScript Japan)) [aMD4dY] |  |  |  |  |  |  |  |  |  |  | Kd [4]: 45 nM
EMP-PA8 (designed binder, disulfide 9-18, 37-46 (inferred), Expressed with the CspB signal peptide of C. glutamicum ATCC13869; also called EMP-PA8 (STaMPtide); EPO mimetic STaMPtide; source: C. glutamicum YPS010, secreted into the supernatant, purified (RP-HPLC)) AETGGLYACHMGPMTWVCQPLRGAAPAAPAPGGLYACHMGPMTWVCQPLRG |  |  |  |  |  |  |  |  | < 0.0257 | < 0.03 | 

The next lines start with results.

kd (human EPOR ectodomain-Fc; Table S1, Average of N 1-3) [M⁻¹ s⁻¹] | KD (human EPOR ectodomain-Fc; Table S1, N 1) [nM] | kd (human EPOR ectodomain-Fc; Table S1, N 1) [M⁻¹ s⁻¹] | KD (human EPOR ectodomain-Fc; Table S1, N 2) [nM] | kd (human EPOR ectodomain-Fc; Table S1, N 2) [M⁻¹ s⁻¹] | KD (human EPOR ectodomain-Fc; Table S1, N 3) [nM] | kd (human EPOR ectodomain-Fc; Table S1, N 3) [M⁻¹ s⁻¹] | binding against EPOR (human EPOR ectodomain-Fc) | Kd [2] [nM] | Kd [3] [nM] | Molecule | further results
 |  |  |  |  |  |  |  | < 0.0104 | < 0.013 | EMP-PA22 (designed binder, disulfide 9-18, 51-60 (inferred), Expressed with the CspB signal peptide of C. glutamicum ATCC13869; also called EMP-PA22 (STaMPtide); EPO mimetic STaMPtide; source: C. glutamicum YPS010, secreted into the supernatant, purified (RP-HPLC)) AETGGLYACHMGPMTWVCQPLRGAAPAAPAPAAPAAPAPAAPAAPGGLYACHMGPMTWVCQPLRG | 
1e-05 | 0.014 | 1e-05 | 0.015 | 1e-05 | 0.01 | 1e-05 | strong binding potency |  |  | EMP-PA22: EPO mimetic STaMPtide, EMP35 dimerized with 22-amino-acid PA linker (disulfide 9-18, 51-60 (inferred)) AETGGLYACHMGPMTWVCQPLRGAAPAAPAPAAPAAPAPAAPAAPGGLYACHMGPMTWVCQPLRG | association rate higher than that of EMP35 (human EPOR ectodomain-Fc): 5–10 times; EPOR activation by serially diluted supernatants (EPOR): activated EPOR, even at high dilutions; EC50 (EPOR): 0.22 nM; erythroid colony formation efficiency (hPBMCs): equivalent to or higher than that of 10 ng/mL of rhEPO
